The experiment concerns the target neurokinin 1 receptor (human) (UniProt P25103).

We go through 1 substance from publication doi:10.1101/2021.05.16.444192.

UniProt P25103, sequence (P25103 whole entry): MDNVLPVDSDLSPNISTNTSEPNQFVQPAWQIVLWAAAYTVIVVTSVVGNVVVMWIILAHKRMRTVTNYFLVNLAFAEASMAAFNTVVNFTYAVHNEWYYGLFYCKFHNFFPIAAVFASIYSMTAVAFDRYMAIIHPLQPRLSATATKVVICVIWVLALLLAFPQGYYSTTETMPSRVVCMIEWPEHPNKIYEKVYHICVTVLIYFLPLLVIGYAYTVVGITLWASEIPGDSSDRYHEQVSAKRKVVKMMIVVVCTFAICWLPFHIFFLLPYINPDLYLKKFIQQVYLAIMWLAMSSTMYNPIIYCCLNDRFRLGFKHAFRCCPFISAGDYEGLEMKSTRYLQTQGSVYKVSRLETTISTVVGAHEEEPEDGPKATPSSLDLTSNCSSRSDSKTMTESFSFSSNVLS

With Substance P 6-11 (peptide), the cAMP accumulation at wild-type NK1R, potency compared to SP worked out at 16 fold.
